Data taken from article PMC8996148, “Crystal structure of the ternary complex of Leishmania major pteridine reductase 1 with the cofactor NADP^+/NADPH and the substrate folic acid” (Acta Crystallographica. Section F, Structural Biology …, 2022).

Target: the molecule itself
Assay: crystal structure; pre-formed crystals of the native enzyme (sitting drop, 293 K, 12% PEG 4600, 100 mM sodium acetate pH 5.5, 120-160 mM calcium acetate) soaked with 2 mM folate for 15 min; space group P212121, four copies per asymmetric unit; 1.81 Å

B1: Leishmania major pteridine reductase 1 (enzyme)
chain: MTAPTVPVALVTGAAKRLGRSIAEGLHAEGYAVCLHYHRSAAEANALSATLNARRPNSAITVQADLSNVATAPVSGADGSAPVTLFTRCAELVAACYTHWGRCDVLVNNASSFYPTPLLRNDEDGHEPCVGDREAMETATADLFGSNAIAPYFLIKAFAHRVAGTPAKHRGTNYSIINMVDAMTNQPLLGYTIYTMAKGALEGLTRSAALELAPLQIRVNGVGPGLSVLVDDMPPAVWEGHRSKVPLYQRDSSAAEVSDVVIFLCSSKAKYITGTCVKVDGGYSLTRA
notes: Pteridine reductase 1, Leishmania major, UniProtKB Q01782; codon-optimized synthetic DNA in pET-15b; also called LmPTR1; PTR1
With B1 the “stoichiometry N” value was 4.
